Measured values taken from paper doi:10.1101/2021.11.18.469126.

Molecular target: TASK3 (UniProt Q9NPC2)
Test: fluorescence polarisation

UniProt Q9NPC2, sequence (Q9NPC2 whole entry): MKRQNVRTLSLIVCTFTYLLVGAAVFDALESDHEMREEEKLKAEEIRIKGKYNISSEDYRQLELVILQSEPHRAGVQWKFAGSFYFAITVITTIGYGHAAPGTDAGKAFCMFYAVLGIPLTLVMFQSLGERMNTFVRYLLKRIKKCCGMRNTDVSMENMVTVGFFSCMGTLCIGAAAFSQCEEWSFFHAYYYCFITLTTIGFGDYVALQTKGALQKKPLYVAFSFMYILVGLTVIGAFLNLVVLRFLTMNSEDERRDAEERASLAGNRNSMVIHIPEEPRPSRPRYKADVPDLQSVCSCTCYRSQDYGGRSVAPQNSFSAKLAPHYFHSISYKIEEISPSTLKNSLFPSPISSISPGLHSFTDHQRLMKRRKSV

Kd: 4.05 µM | cooperativity factor α (stabilisation of the pair by fusicoccin-A): 1340
Substance: 14-3-3 protein (from UniProt P31947 1-248) (natural protein)
